Laboratory results taken from patent US20160279215A1, “NOVEL PEPTIDES AND COMBINATION OF PEPTIDES FOR USE IN IMMUNOTHERAPY AGAINST VARIOUS TUMORS” (immatics biotechnologies GmbH, priority 2015, published 2016).

Target: T1, HLA-A*02:01 (human)
T1 construct: MHC monomers captured on streptavidin plates; the UV-sensitive peptide is cleaved and exchanged with the test peptide; also called peptide-receptive MHC molecules; MHC class I
Test: UV ligand-exchange ELISA (anti-b2m); +++ = exchange yield >=50
Text: Candidate peptides for T cell based therapies according to the present invention were further tested for their MHC binding capacity (affinity). The individual peptide-MHC complexes were produced by UV-ligand exchange, where a UV-sensitive peptide is cleaved upon UV-irradiation, and exchanged with the peptide of interest as analyzed. Only peptide candidates that can effectively bind and stabilize the peptide-receptive MHC molecules prevent dissociation of the MHC complexes. To determine the yield of the exchange reaction, an ELISA was performed based on the detection of the light chain (β2m) of stabilized MHC complexes. The assay was performed as generally described in Rodenko et al. (Rodenko et al., 2006).
96 well MAXISorp plates (NUNC) were coated over night with 2 ug/ml streptavidin in PBS at room temperature, washed 4× and blocked for 1 h at 37° C. in 2% BSA containing blocking buffer. Refolded HLA-A*02:01/MLA-001 monomers served as standards, covering the range of 15-500 ng/ml. Peptide-MHC monomers of the UV-exchange reaction were diluted 100 fold in blocking buffer. Samples were incubated for 1 h at 37° C., washed four times, incubated with 2 ug/ml HRP conjugated anti-β2m for 1 h at 37° C., washed again and detected with TMB solution that is stopped with […]. Absorption was measured at 450 nm. […]

B1: SLTGANITV (peptide)
peptide: SLTGANITV
peptide exchange yield: 50 to 75%
